The values that follow come from article PMC6180082, “Structural Analysis of an Epitope Candidate of Triosephosphate Isomerase in Opisthorchis viverrini” (Scientific Reports, 2018).

The data set concerns the molecule itself. In words: crystal structure; OvTIM wild-type at ~80 mg/ml, hanging-drop vapor diffusion, 0.3 M magnesium chloride hexahydrate, 0.1 M Tris pH 8.5, 22% PEG 3350, 20 °C; molecular replacement; two homodimers in the asymmetric unit.

B1: Triosephosphate isomerase from Opisthorchis viverrini (OvTIM), wild-type (enzyme)
chain: MPTDRKFFVGGNWKMNGSKKENDKLIEMLTHAKIDPNTEVLVAPPSLYLPSVREKLDKRFHVAAQNCYKVPSGAFTGEVSPAMLKDVGCDWVILGHSERRHILMETDQLVGEKTNHAISAGVNVIACIGEKLEEREAGKTEEVCFRQMEAIRKNLSSADMWNHIVIAYEPVWAIGTGKTATEQQAQEVHLAVRKWMEEKVSPAVANSIRIIYGGSVTAANCRTLAKQPDVDGFLVGGASLKPDFIEICNANA
notes: Triosephosphate isomerase (EC 5.3.1.1) of Opisthorchis viverrini; cDNA synthesized and cloned NdeI/XhoI into pET17b with a 6 His-tag and thrombin site; residues 175-179 have no clear electron density in the crystal; a thrombin site lies between tag and protein; source: E. coli BL21 (DE3) pLysS, purified (HisTrap HP, HiTrap Q HP, Superdex-200 SEC)
Take B1: the binding result is “binds”.
